For data set [1], the target named is ExsA-L117R (Pseudomonas aeruginosa) (UniProt P26993).
Data set [2] concerns the molecule itself. As to the kind of experiment: crystal structure; hanging-drop vapor diffusion at 25°C; 1.6M MgSO4, 0.1M MES pH 6.5, 0.1M EGTA; dimers A/A' and B/B'' made by crystallographic two-fold axes.

Here are results for two molecules from paper PMC4552939, “Structural Analysis of the Regulatory Domain of ExsA, a Key Transcriptional Regulator of the Type Three Secretion System in Pseudomonas aeruginosa” (PLoS ONE, 2015).

“ExsA-L117R (from UniProt P26993 1-278) (natural protein)” gave an activation of transcription in vitro at 16, 32 and 64 nM protein, against wild-type ExsA in data set [1] of 10 fold.

B1: ExsA amino-terminal domain (ExsA-NTD), amino acids 2-178 (domain or fragment)
chain: QGAKSLGRKQITSCHWNIPTFEYRVNKEEGVYVLLEGELTVQDIDSTFCLAPGELLFVRRGSYVVSTKGKDSRILWIPLSAQFLQGFVQRFGALLSEVERCDEPVPGIIAFAATPLLAGCVKGLKELLVHEHPPMLACLKIEELLMLFAFSPQGPLLMSVLRQLSNRHVERLQLFME
notes: thermolysin product, amino acids 2-178 by LC-MS; A selenomethionine-substituted sample was also made (E. coli BL21(DE3), minimal medium), crystallised under identical conditions and used for phasing; Residues 2-10 and 166-178 (chain A) and 2-9 and 167-178 (chain B) gave no density; also called regulatory domain of ExsA; ExsA N-terminal domain protein; source: E. coli BL21(DE3) CodonPlus RIL, …
Take B1: in data set [2], the binding result is given as “binds”.
